What was measured:
[1] = biological target: human PCSK9 with a C-terminal myc-myc-hexahistidine tag (human) (UniProt Q8NBP7); experiment: SPR (Biacore), 37 °C; antibody captured on anti-human Fc surface, hPCSK9-mmH injected (3.125-50 nM); association at pH 7.4, dissociation at pH 5.75
[2] = biological target: human PCSK9 with a C-terminal myc-myc-hexahistidine tag (human) (UniProt Q8NBP7); experiment: blocking ELISA pH 5.75, 500 pM hPCSK9-mmH vs coated hLDLR EGFA-hFc
[3] = biological target: human PCSK9 with a C-terminal myc-myc-hexahistidine tag (human) (UniProt Q8NBP7); experiment: SPR (Biacore), 37 °C; antibody captured on anti-human Fc surface, hPCSK9-mmH injected (3.125-50 nM); association at pH 7.4, dissociation at pH 6.0
[4] = biological target: human PCSK9 with a C-terminal myc-myc-hexahistidine tag (human) (UniProt Q8NBP7); experiment: blocking ELISA pH 7.2, 500 pM hPCSK9-mmH vs coated hLDLR EGFA-hFc
[5] = biological target: human PCSK9 with a C-terminal myc-myc-hexahistidine tag (human) (UniProt Q8NBP7); experiment: SPR 25C, purified mAb captured
[6] = biological target: human PCSK9 with a C-terminal myc-myc-hexahistidine tag (human) (UniProt Q8NBP7); experiment: SPR (Biacore), 37 °C; antibody captured on anti-human Fc surface, hPCSK9-mmH injected (3.125-50 nM); association at pH 7.4, dissociation at pH 7.2
[7] = biological target: human PCSK9 with a C-terminal myc-myc-hexahistidine tag (human) (UniProt Q8NBP7); experiment: SPR (Biacore), 37 °C; antibody captured on anti-human Fc surface, hPCSK9-mmH injected (3.125-50 nM); association at pH 7.4, dissociation at pH 7.4
[8] = biological target: human PCSK9 with a C-terminal myc-myc-hexahistidine tag (human) (UniProt Q8NBP7); experiment: blocking ELISA, hPCSK9-mmH vs coated hLDLR EGFA-hFc
[9] = biological target: human PCSK9 with a C-terminal myc-myc-hexahistidine tag (human) (UniProt Q8NBP7); experiment: cell-based or functional assay
[10] = biological target: human PCSK9 with a C-terminal myc-myc hexahistidine tag and a D374Y mutation (human) (UniProt Q8NBP7); experiment: cell-based or functional assay
[11] = biological target: recombinant cynomolgus monkey PCSK9 with a C-terminal myc-myc hexahistidine tag (cynomolgus monkey); experiment: cell-based or functional assay
[12] = biological target: human PCSK9 with a C-terminal myc-myc-hexahistidine tag (human) (UniProt Q8NBP7); experiment: SPR 25C pH 6.0, purified mAb captured
[13] = biological target: human PCSK9 with a C-terminal myc-myc-hexahistidine tag (human) (UniProt Q8NBP7); experiment: SPR 25C pH 7.4, purified mAb captured

t½ (dissociative half-life) [1]: 1.44 h | IC50 [2]: 331 pM | t½ (dissociative half-life) [3]: 1.19 h | IC50 [4]: 245 pM | KD ratio pH 6.0/pH 7.4 [5]: 0.28 | ka ratio pH 6.0/pH 7.4 [5]: 1.65 | kd ratio pH 6.0/pH 7.4 [5]: 0.47 | t½ ratio pH 6.0/pH 7.4 [5]: 2.15 | t½ (dissociative half-life) [6]: 1.47 h | t½ (dissociative half-life) [7]: 1.5 h | IC50 ratio (pH 5.75/pH 7.2) [8]: 1.3 | IC50, LDL uptake in HepG2 cells, 50 nM hPCSK9-mmH [9]: 8900 pM | IC50, LDL uptake in HepG2 cells, 2 nM hPCSK9-D374Y-mmH [10]: 970 pM | IC50, LDL uptake in HepG2 cells, 50 nM MfPCSK9-mmH [11]: 10400 pM | Kd [12]: 205 pM | koff [12]: 2.84e-05 s⁻¹ | kon [12]: 138000 M⁻¹ s⁻¹ | t½ [12]: 6.79 h | Kd [13]: 728 pM | koff [13]: 6.09e-05 s⁻¹ | kon [13]: 83600 M⁻¹ s⁻¹ | t½ [13]: 3.16 h
B1: Comparator 7 (antibody, from another filing, IgG2, V domains shown)
VH: QVQLVQSGAEVKKPGASVKVSCKASGYTLTSYGISWVRQAPGQGLEWMGWVSFYNGNTNYAQKLQGRGTMTTDPSTSTAYMELRSLRSDDTAVYYCARGYGMDVWGQGTTVTVSS
VL: QSALTQPASVSGSPGQSITISCTGTSSDVGGYNSVSWYQQHPGKAPKLMIYEVSNRPSGVSNRFSGSKSGNTASLTISGLQAEDEADYYCNSYTSTSMVFGGGTKLTVLQ
